Laboratory results reported in patent US20250339531A1, “DUX4 POLYPEPTIDES AND NUCLEIC ACIDS FOR TREATING INFLAMMATORY AND AUTOIMMUNE CONDITIONS” (Fred Hutchinson Cancer Center, priority 2021, published 2025).

Columns and labels:
[1] = target: 40S ribosomal protein S6 (Homo sapiens) (UniProt P62753); assay: anti-FLAG co-IP LC-MS, exp 4, +Dox +IFNG
[2] = target: Src substrate cortactin (Homo sapiens) (UniProt Q14247); assay: anti-FLAG co-IP LC-MS, exp 4, +Dox +IFNG
[3] = target: Importin subunit beta-1 (Homo sapiens) (UniProt Q14974); assay: anti-FLAG co-IP LC-MS, exp 4, +Dox +IFNG
[4] = target: Neuroblast differentiation-associated protein AHNAK (Homo sapiens) (UniProt Q09666); assay: anti-FLAG co-IP LC-MS, exp 4, +Dox +IFNG
[5] = target: Ubiquitin carboxyl-terminal hydrolase 11 (Homo sapiens) (UniProt P51784); assay: anti-FLAG co-IP LC-MS, exp 4, +Dox +IFNG
[6] = target: 60S ribosomal protein L5 (Homo sapiens) (UniProt P46777); assay: anti-FLAG co-IP LC-MS, exp 4, +Dox +IFNG
[7] = target: Serine/threonine-protein kinase 38 (Homo sapiens) (UniProt Q15208); assay: anti-FLAG co-IP LC-MS, exp 4, +Dox +IFNG
[8] = target: Spectrin beta chain (Homo sapiens) (UniProt Q01082); assay: anti-FLAG co-IP LC-MS, exp 4, +Dox +IFNG
[9] = target: 40S ribosomal protein S3a (Homo sapiens) (UniProt P61247); assay: anti-FLAG co-IP LC-MS, exp 4, +Dox +IFNG
[10] = target: Actin-related protein 3 (Homo sapiens) (UniProt P61158); assay: anti-FLAG co-IP LC-MS, exp 4, +Dox +IFNG
[11] = target: Protein disulfide-isomerase (Homo sapiens) (UniProt P07237); assay: anti-FLAG co-IP LC-MS, exp 4, +Dox +IFNG
[12] = target: Capping protein (Actin filament) muscle Z-line, beta, isoform CRA_d (Homo sapiens) (UniProt B1AK88); assay: anti-FLAG co-IP LC-MS, exp 4, +Dox +IFNG
[13] = target: Tubulin alpha chain (Homo sapiens) (UniProt F5H5D3); assay: anti-FLAG co-IP LC-MS, exp 4, +Dox +IFNG
[14] = target: 40S ribosomal protein S6 (Homo sapiens) (UniProt P62753); assay: anti-FLAG co-IP LC-MS, exp 3, +IFNg +Dox
[15] = target: WD repeat-containing protein 1 (Homo sapiens) (UniProt O75083); assay: anti-FLAG co-IP LC-MS, exp 3, +IFNg +Dox
[16] = target: Importin-5 (Fragment) (Homo sapiens) (UniProt O00410); assay: anti-FLAG co-IP LC-MS, exp 3, +IFNg +Dox
[17] = target: Stress-70 protein, mitochondrial (Homo sapiens) (UniProt P38646); assay: anti-FLAG co-IP LC-MS, exp 3, +IFNg +Dox
[18] = target: Protease serine 2 preproprotein (Homo sapiens) (UniProt A6XMV9); assay: anti-FLAG co-IP LC-MS, exp 3, +IFNg +Dox
[19] = target: D-3-phosphoglycerate dehydrogenase (Homo sapiens) (UniProt O43175); assay: anti-FLAG co-IP LC-MS, exp 3, +IFNg +Dox
[20] = target: Prelamin-A/C (Homo sapiens) (UniProt P02545); assay: anti-FLAG co-IP LC-MS, exp 3, +IFNg +Dox
[21] = target: Ribonuclease inhibitor (Homo sapiens) (UniProt P13489); assay: anti-FLAG co-IP LC-MS, exp 3, +IFNg +Dox
[22] = target: Histone acetyltransferase type B catalytic subunit (Homo sapiens) (UniProt O14929); assay: anti-FLAG co-IP LC-MS, exp 3, +IFNg +Dox
[23] = target: Plasminogen activator inhibitor 1 (Homo sapiens) (UniProt P05121); assay: anti-FLAG co-IP LC-MS, exp 3, +IFNg +Dox
[24] = target: 60S acidic ribosomal protein P0 (Homo sapiens) (UniProt P05388); assay: anti-FLAG co-IP LC-MS, exp 3, +IFNg +Dox
[25] = target: Reticulon-4 (Homo sapiens) (UniProt Q9NQC3); assay: anti-FLAG co-IP LC-MS, exp 3, +IFNg +Dox
[26] = target: Signal transducer and activator of transcription 3 (Homo sapiens) (UniProt P40763); assay: anti-FLAG co-IP LC-MS, exp 3, +IFNg +Dox
[27] = target: Heterogeneous nuclear ribonucleoprotein H (Homo sapiens) (UniProt G8JLB6); assay: anti-FLAG co-IP LC-MS, exp 3, +IFNg +Dox
[28] = target: 60S ribosomal protein L18a (Homo sapiens) (UniProt Q02543); assay: anti-FLAG co-IP LC-MS, exp 3, +IFNg +Dox
[29] = target: Protein disulfide-isomerase A3 (Fragment) (Homo sapiens) (UniProt P30101); assay: anti-FLAG co-IP LC-MS, exp 3, +IFNg +Dox
[30] = target: Ras GTPase-activating protein-binding protein 2 (Homo sapiens) (UniProt Q9UN86); assay: anti-FLAG co-IP LC-MS, exp 3, +IFNg +Dox
[31] = target: Protein disulfide-isomerase (Homo sapiens) (UniProt P07237); assay: anti-FLAG co-IP LC-MS, exp 3, +IFNg +Dox
[32] = target: Heat shock protein HSP 90-beta (Homo sapiens) (UniProt P08238); assay: anti-FLAG co-IP LC-MS, exp 3, +IFNg +Dox
[33] = target: Tubulin beta-4B chain (Homo sapiens) (UniProt P68371); assay: anti-FLAG co-IP LC-MS, exp 3, +IFNg +Dox
Filamin-A (Homo sapiens) = Filamin-A (Homo sapiens) (UniProt P21333); assay: anti-FLAG co-IP LC-MS, exp 3, +IFNg +Dox
[34] = target: Heat shock protein HSP 90-alpha (Homo sapiens) (UniProt P07900); assay: anti-FLAG co-IP LC-MS, exp 3, +IFNg +Dox
[35] = target: Caveolae-associated protein 1 (Homo sapiens) (UniProt Q6NZI2); assay: anti-FLAG co-IP LC-MS, exp 3, +IFNg +Dox

Protein disulfide-isomerase (Homo sapiens), sequence (P07237 18-508 limits assumed): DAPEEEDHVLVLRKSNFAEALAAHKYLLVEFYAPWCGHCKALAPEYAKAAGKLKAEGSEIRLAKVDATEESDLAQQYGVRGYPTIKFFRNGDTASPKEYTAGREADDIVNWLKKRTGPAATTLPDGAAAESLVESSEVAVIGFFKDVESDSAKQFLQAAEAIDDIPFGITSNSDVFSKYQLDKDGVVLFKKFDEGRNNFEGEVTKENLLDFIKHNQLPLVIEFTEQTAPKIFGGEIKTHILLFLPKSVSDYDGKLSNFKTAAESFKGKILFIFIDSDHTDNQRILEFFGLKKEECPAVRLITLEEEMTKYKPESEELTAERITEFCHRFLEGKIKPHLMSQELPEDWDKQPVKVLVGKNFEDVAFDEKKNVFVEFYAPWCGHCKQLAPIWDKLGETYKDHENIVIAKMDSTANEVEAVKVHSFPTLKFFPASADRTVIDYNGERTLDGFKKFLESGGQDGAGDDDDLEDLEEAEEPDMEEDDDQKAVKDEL
Signal transducer and activator of transcription 3 (Homo sapiens), sequence (P40763 2-770 limits assumed): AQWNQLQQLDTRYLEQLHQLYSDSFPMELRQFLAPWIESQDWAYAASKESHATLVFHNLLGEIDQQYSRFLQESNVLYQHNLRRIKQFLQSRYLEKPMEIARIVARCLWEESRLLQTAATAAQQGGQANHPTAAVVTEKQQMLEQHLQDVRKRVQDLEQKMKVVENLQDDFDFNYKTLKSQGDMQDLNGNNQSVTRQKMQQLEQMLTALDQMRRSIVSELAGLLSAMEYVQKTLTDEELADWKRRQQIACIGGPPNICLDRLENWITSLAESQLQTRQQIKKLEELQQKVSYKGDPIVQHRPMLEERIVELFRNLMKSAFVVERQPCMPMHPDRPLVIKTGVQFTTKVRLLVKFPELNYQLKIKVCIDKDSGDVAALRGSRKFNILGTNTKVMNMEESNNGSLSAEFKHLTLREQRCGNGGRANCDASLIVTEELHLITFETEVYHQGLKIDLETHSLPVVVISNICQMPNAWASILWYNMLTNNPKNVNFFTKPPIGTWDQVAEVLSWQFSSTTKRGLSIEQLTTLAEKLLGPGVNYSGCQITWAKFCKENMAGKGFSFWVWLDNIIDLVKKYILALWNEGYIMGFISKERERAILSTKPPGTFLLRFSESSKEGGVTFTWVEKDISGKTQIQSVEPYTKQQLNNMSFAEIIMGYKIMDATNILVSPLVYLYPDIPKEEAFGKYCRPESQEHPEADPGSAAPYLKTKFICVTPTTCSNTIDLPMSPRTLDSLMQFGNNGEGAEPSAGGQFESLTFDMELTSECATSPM
Importin-5 (Fragment) (Homo sapiens), sequence (O00410 2-1097 limits assumed): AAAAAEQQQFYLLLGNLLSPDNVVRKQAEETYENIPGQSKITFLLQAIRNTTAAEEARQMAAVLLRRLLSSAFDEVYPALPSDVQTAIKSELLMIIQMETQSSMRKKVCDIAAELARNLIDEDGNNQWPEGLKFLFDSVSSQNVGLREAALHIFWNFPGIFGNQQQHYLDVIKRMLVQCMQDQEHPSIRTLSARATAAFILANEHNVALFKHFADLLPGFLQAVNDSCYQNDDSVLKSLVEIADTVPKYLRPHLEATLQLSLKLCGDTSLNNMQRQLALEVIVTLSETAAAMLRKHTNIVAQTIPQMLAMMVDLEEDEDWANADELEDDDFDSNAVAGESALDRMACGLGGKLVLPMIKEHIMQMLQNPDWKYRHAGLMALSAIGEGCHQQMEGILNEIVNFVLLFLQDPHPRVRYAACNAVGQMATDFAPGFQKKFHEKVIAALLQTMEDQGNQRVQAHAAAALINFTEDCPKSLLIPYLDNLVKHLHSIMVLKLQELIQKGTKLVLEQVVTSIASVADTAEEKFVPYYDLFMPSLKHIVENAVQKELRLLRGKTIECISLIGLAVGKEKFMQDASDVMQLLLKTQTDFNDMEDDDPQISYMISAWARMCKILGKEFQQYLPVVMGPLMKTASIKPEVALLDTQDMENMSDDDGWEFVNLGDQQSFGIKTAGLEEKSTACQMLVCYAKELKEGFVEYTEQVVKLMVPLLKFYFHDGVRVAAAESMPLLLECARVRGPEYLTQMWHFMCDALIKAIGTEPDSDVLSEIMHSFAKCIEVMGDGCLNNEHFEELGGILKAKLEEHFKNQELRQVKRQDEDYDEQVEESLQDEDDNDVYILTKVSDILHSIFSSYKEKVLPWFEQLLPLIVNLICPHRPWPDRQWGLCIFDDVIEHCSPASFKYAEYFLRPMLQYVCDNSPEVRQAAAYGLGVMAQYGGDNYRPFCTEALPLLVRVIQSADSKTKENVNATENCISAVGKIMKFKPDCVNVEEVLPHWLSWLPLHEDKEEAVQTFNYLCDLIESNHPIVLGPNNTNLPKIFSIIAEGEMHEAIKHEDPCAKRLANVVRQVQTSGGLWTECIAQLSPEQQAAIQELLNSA
Capping protein (Actin filament) muscle Z-line, beta, isoform CRA_d (Homo sapiens), sequence (B1AK88 entry or part of it limits assumed, form in doubt): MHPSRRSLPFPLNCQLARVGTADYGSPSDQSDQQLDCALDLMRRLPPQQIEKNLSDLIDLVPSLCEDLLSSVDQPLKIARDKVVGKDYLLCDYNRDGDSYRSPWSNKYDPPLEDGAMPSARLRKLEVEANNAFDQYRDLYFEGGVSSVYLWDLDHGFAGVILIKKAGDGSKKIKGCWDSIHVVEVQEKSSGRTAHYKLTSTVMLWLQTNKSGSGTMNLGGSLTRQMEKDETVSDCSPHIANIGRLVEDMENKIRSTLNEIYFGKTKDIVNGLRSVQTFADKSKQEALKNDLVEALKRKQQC
Protein disulfide-isomerase A3 (Fragment) (Homo sapiens), sequence (P30101 25-505 limits assumed): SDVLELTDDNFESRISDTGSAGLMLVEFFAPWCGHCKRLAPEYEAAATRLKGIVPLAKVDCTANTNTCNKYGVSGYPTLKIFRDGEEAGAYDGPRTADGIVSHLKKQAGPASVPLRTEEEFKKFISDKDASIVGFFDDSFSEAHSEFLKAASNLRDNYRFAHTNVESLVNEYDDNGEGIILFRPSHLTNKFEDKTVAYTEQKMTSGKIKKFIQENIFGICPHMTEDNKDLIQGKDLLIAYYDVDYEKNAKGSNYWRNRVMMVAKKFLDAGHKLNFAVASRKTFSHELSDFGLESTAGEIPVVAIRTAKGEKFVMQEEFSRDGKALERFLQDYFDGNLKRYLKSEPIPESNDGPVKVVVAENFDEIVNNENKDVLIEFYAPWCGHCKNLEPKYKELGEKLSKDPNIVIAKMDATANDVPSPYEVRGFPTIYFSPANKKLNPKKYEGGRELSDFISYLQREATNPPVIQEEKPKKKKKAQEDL
Importin subunit beta-1 (Homo sapiens), sequence (Q14974 whole entry): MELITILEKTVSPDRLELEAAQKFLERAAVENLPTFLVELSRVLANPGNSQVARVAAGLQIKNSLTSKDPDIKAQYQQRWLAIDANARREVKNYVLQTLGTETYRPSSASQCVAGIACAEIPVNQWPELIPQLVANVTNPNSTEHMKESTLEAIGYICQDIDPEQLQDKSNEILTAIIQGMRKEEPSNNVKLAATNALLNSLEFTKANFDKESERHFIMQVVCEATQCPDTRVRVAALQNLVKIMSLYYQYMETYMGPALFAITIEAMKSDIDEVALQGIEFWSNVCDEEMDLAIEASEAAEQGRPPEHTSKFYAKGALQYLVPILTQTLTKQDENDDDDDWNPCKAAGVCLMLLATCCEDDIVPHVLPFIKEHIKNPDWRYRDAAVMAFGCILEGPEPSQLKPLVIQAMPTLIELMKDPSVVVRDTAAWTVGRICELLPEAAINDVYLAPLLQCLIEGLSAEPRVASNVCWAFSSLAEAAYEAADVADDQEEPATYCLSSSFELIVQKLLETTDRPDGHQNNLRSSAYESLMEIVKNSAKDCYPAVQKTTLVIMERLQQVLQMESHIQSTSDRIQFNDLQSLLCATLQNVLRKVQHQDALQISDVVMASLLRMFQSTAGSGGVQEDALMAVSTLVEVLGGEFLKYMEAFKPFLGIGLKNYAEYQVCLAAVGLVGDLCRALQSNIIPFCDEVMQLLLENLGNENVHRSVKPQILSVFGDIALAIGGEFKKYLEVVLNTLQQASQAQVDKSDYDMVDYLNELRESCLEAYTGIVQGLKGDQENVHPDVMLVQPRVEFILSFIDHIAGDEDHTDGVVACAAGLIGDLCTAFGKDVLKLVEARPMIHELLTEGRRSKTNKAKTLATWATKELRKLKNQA
Ubiquitin carboxyl-terminal hydrolase 11 (Homo sapiens), sequence (P51784 whole entry): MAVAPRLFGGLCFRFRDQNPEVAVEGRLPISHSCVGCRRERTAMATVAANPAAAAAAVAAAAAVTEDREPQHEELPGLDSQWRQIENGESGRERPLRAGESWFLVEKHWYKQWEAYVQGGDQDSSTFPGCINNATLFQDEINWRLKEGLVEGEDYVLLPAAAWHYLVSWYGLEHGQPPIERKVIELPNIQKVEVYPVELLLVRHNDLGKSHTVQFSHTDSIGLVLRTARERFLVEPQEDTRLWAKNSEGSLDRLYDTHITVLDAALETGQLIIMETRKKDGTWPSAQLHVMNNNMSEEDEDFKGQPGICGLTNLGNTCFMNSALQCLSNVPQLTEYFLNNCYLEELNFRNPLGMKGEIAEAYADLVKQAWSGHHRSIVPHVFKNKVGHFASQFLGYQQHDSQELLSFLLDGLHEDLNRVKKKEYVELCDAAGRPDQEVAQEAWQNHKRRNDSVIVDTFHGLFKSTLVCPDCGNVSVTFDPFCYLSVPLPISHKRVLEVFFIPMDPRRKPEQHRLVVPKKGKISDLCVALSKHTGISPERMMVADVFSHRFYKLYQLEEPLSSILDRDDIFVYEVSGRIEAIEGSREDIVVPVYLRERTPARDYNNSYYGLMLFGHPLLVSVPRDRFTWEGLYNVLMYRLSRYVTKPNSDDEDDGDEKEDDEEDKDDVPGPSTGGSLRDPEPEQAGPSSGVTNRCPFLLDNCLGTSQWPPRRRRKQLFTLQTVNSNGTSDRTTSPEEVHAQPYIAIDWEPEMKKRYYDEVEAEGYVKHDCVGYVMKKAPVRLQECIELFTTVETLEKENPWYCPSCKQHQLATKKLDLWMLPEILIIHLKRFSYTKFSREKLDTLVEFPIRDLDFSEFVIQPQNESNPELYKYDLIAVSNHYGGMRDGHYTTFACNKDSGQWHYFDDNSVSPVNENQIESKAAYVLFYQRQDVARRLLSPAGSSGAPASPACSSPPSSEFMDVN

## i3XFLAG-NLS-CTDaa154-424
[1]
  PSMs: 2 PSMs
[2]
  PSMs: 5 PSMs
[3]
  PSMs: 3 PSMs
[4]
  PSMs: 1 PSMs
[5]
  PSMs: 2 PSMs
[6]
  PSMs: 19 PSMs
[7]
  PSMs: 6 PSMs
[8]
  PSMs: 3 PSMs
[9]
  PSMs: 2 PSMs
[10]
  PSMs: 3 PSMs
[11]
  PSMs: 14 PSMs
[12]
  PSMs: 11 PSMs
[13]
  PSMs: 25 PSMs
[14]
  PSMs: 3 PSMs
[15]
  PSMs: 2 PSMs
[16]
  PSMs: 3 PSMs
[17]
  PSMs: 10 PSMs
[18]
  PSMs: 2 PSMs
[19]
  PSMs: 3 PSMs
[20]
  PSMs: 3 PSMs
[21]
  PSMs: 3 PSMs
[22]
  PSMs: 3 PSMs
[23]
  PSMs: 3 PSMs
[24]
  PSMs: 5 PSMs
[25]
  PSMs: 7 PSMs
[26]
  PSMs: 3 PSMs
[27]
  PSMs: 7 PSMs
[28]
  PSMs: 2 PSMs
[29]
  PSMs: 2 PSMs
[30]
  PSMs: 3 PSMs
[31]
  PSMs: 5 PSMs
[32]
  PSMs: 14 PSMs
[33]
  PSMs: 70 PSMs
Filamin-A (Homo sapiens)
  PSMs: 12 PSMs
[34]
  PSMs: 9 PSMs
[35]
  PSMs: 3 PSMs
